Where “and” joins values, the source holds several entries; their conditions need not be identical. Equal entries are not always repeated.
B1: M-CSFM: 158 amino acid M-CSF with cysteine at position 31 replaced by serine (SEQ ID NO: 2) (protein)
chain: EEVSEYCSHMIGSGHLQSLQRLIDSQMETSSQITFEFVDQEQLKDPVCYLKKAFLLVQDIMEDTMRFRDNTPNAIAIVQLQELSLRLKSCFTKDYEEHDKACVRTFYETPLQLLEKVKNVFNETKNLLDKDWNIFSKNCNNSFAECSSQGHERQSEGS
B2: 5.6: bispecific M-CSFRGD variant from sort five; M-CSFM loop replaced by XXXRGDXXX motif; binds c-FMS and αvβ3 integrin (protein)
chain: EEVSEYCSHMIGSGHLQSLQRLIDTYPRGDMCSITFEFVDQEQLKDPVCYLKKAFLLVQDIMEDTMRFRDNTPNAIAIVQLQELSLRLKSCFTKDYEEHDKACVRTFYETPLQLLEKVKNVFNETKNLLDKDWNIFSKNCNNSFAECSSQGHERQSEGS
modifications: left off: small tags and cut ends

Legend:
c-kit receptor = c-kit receptor (Homo sapiens, UniProt P10721); test: YSD binding specificity test against c-kit receptor; settings: even at high concentrations of 200 nM; data not shown
c-kit receptor, sequence (P10721 26-976): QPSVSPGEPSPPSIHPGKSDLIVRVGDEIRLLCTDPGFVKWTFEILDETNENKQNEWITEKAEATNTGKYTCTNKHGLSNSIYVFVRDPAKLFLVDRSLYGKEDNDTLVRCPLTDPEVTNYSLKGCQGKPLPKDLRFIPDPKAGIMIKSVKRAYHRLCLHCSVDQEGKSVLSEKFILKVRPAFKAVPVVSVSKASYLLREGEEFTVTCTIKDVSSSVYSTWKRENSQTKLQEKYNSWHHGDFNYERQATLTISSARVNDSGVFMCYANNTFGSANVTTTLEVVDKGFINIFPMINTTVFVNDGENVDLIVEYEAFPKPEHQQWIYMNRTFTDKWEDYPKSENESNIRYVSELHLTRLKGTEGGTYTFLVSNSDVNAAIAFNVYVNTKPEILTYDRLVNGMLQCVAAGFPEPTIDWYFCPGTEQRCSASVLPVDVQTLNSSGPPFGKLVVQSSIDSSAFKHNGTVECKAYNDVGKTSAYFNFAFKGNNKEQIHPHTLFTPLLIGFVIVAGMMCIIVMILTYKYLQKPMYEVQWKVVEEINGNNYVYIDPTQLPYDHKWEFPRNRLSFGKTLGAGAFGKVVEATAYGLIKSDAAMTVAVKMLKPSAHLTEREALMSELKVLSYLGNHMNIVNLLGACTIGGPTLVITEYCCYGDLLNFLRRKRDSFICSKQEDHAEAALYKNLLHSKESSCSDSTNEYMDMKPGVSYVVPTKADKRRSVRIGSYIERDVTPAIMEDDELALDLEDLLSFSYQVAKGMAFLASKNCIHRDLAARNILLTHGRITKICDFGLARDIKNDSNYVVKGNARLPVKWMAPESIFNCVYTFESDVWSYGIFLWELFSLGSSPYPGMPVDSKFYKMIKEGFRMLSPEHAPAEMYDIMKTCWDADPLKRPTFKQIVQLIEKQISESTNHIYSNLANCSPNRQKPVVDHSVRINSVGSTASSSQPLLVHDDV
Method: Next, a binding specificity of the M-CSFM to c-FMS was evaluated. For this purpose, the ability of M-CSFM to bind a c-kit receptor, which is a c-FMS structural homolog, was utilized.

αvβ5 integrin = αvβ5 integrin (Homo sapiens, UniProt P06756+P18084, DEL720-799); test: SPR integrin specificity, immobilized αvβ5; type: binding; settings: variants at 1 μM
αvβ5 integrin, sequence (P06756 31-992 limits assumed, stated change not applied): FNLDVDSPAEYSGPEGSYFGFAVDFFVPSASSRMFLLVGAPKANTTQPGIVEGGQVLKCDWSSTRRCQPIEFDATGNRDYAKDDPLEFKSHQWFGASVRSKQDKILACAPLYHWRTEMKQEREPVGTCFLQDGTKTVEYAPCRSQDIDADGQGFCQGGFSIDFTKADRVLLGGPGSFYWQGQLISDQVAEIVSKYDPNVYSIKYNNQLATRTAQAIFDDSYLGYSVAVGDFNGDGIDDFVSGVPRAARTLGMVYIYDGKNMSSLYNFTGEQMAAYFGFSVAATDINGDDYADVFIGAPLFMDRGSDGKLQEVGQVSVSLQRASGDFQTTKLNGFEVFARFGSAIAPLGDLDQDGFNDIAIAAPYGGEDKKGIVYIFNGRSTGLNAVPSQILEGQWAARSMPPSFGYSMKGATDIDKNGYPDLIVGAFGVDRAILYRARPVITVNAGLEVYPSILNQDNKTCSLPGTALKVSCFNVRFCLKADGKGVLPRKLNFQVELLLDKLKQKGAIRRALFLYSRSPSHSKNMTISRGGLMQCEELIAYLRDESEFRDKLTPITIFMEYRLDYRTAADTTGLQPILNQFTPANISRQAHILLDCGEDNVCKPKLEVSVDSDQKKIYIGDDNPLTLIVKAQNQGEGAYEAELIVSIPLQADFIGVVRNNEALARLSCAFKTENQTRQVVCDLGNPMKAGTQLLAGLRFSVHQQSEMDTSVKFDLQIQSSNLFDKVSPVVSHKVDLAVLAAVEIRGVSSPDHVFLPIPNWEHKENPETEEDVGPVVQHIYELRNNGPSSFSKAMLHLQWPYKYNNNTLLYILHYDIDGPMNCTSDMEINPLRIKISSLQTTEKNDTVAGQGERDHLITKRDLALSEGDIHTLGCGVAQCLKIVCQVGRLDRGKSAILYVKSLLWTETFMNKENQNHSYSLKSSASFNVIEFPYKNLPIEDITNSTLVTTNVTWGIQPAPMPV
αvβ5 integrin, sequence (P18084 24-719 limits assumed, stated change not applied): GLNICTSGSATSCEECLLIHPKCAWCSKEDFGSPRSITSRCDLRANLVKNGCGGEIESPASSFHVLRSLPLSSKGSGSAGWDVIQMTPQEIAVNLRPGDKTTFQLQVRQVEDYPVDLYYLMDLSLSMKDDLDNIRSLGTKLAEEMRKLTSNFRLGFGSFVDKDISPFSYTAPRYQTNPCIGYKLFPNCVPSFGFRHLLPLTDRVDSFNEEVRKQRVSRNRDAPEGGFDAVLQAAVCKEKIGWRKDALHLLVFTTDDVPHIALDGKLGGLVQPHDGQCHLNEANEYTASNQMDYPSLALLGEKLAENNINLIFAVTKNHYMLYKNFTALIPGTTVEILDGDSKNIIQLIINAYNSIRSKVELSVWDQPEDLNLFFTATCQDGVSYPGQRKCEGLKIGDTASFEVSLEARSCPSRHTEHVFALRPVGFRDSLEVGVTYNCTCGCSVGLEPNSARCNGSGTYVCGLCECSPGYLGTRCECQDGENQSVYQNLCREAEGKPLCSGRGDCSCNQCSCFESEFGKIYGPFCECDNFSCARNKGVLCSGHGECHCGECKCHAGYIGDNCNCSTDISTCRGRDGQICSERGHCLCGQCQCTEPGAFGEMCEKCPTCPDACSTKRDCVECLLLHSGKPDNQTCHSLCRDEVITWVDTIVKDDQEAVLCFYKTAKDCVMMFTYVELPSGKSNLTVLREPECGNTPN
Method: Determination of binding of the soluble purified proteins (M-CSFM and M-CSFRGD variants) to c-FMS and αvβ3 integrin was performed on a ProteOn XPR36 (Bio-Rad, USA). […] Unbound esters were deactivated with 1 M ethanolamine HCl at pH 8.5, and the temperature was set at 25° C. Then, the chip was rotated, and the human c-FMS soluble proteins (Sino Biological, China) were allowed to flow over the chip at 6 different concentrations (0, 12.5, 25, 50, 100 and 200 nM) at a flow rate of 50 μl/min for 490 s, followed by dissociation for 600 s in PBS+0.005% Tween (PBST). For determining αvβ3 integrin binding, the chip was regenerated using 50 mM NaOH at a flow rate of 100 μl/min and analyzed again for c-FMS binding to make sure that the chip had been regenerated. After making sure the chip is regenerated, and different concentrations of […] proteins (0, 12.5, 25, 50, 100 and 200 nM) were allowed to flow over the chip. The interactions obtained were normalized to the initial protein binding RUs to the chip surface. Then, for each concentration, the KD was obtained from the equilibrium binding phase of the sensorgram. To determine the αvβ3 integrin specificity for each M-CSFRGD variant, a new chip was loaded with different RGD binding integrins, as follows: 8.5 μg of α3β1, 8.5 μg of α4β7, 6 μg of α5β1, 8.5 μg of αvβ5, and 8.5 μg of αvβ3 integrin and 3 μg of BSA as a negative control. […]

[1] = system: CTX-I (carboxy-terminal collagen crosslinks); test: CTX-I serum ELISA in ovariectomized mice (bone resorption); type: in vivo, C57 Rcc mice; parameters: CTX-I serum-concentration: unit not given here; settings: for CTX-I serum-concentration: 4 days, individual animals, listed as M-CSF 5.6
Method: In order to assess the effect of M-CSF variant on bone resorption, 10 weeks old C57 Rcc mice were ovariectomized resulting in a decrease in estrogen secretion similar to what occurs in osteoporosis. Two weeks post-surgery the mice were treated with M-CSF5.6 variant in three concentrations-0.1 mg/kg, 0.5 mg/kg and 15 mg/kg, in order to test the effect on bone resorption and to find the optimal dosage. For a period of 4 days, 0.1 and 0.5 mg/kg M-CSF5.6 treated mice received subcutaneous injections twice a day, while 15 mg/kg M-CSF5.6 treated mice received a daily subcutaneous injection. Mice were sacrificed 18-24 hours after the final injection. The amounts of type I collagen fragments in the blood were measured using CTX-I (carboxy-terminal collagen crosslinks) ELISA.
Animals were randomly divided into 2 control groups (SHAM, PBS) and 4 treatment groups (0.1, 0.5 and 15 mg/kg M-CSF5.6 and 0.1 mg/kg Alendronate as positive control). Except for the SHAM group, all animals were ovariectomized. *, ^, + represent a Haemolytic-serum sample, an unsuccessful ovariectomy procedure (as determined post mortem) and an outlier, respectively. CTX-I serum-concentration values of mice with unsuccessful ovariectomy were excluded from the analysis.

| Molecule | binding to c-kit receptor (c-kit receptor) | rank order of αvβ5 integrin binding (αvβ5 integrin) | CTX-I serum-concentration ([1]; 0.1 mg/kg s.c. twice a day, * haemolytic) | CTX-I serum-concentration ([1]; 0.5 mg/kg s.c. twice a day, * haemolytic, ^ unsuccessful ovariectomy, + outlier) | decrease in CTX-I levels compared to the PBS treated animals ([1]; 15 mg/kg) | CTX-I serum-concentration ([1]; 15 mg/kg s.c. daily, ^ unsuccessful ovariectomy, + outlier) | effect on CTX-I levels at lower doses ([1]; 0.1 and 0.5 mg/kg, hemolytic samples included) |
| --- | --- | --- | --- | --- | --- | --- | --- |
| B1 | did not bind | – | – | – | – | – | – |
| B2 | – | 4.24 is the best αvβ5 integrin followed by 4.22 and 5.6 | 58.19 and 44.06 and 130.4* and 195.2* and 53.32 and 46.69 | 53.33 and 209.7+ and 47.65*^ and 64.67 and 70.37* and 83.09* | ~2 fold | 33.94 and 33.49 and 214.7^+ and 46.82 and 30.85 and 40.68 | ineffective |

From US11976099B2, “Compositions and methods for treatment of bone associated diseases” (THE NATIONAL INSTITUTE FOR BIOTECHNOLOGY IN THE NEGEV LTD., priority 2016, dated 2024)
